# Data reported in the supplement of paper PMC10567573.
# B1: COX4I1 (parent)
# chain: FDKEWVAKQTKRMLDMKVNPIQGL
# Variants of: B1
# Assay: protein stability index of a GFP-peptide fusion (GPS, HEK-293T) (PSI 1-6); higher = more stable
# Conditions: c terminus: a fixed tail appended
# 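Note: lentivirally expressed fusions sorted by FACS into six bins by GFP to DsRed ratio, PSI derived from sequencing read proportions per bin multiplied by bin number.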
row,Variant,protein stability index
1,FDKEWVAKQTKRMLDMKVNPIWGL,1.68
2,FDKEWVAKQTKRMLDMKVNPIKGL,1.92
3,FDKEWVAKQTKRMLDMKVNPIAGL,1.93
4,FDKEWVAKQTKRMLDMKVNPIHGL,1.93
5,FDKEWVAKQTKRMLDMKVNPINGL,1.77
6,FDKEWVAKQTKRMLDMKVNPIDGL,2.31
7,FDKEWVAKQTKRMLDMKVNPIIGL,2.79
8,FDKEWVAKQTKRMLDMKVNPIPGL,1.73
9,FDKEWVAKQTKRMLDMKVNPILGL,2.08
10,FDKEWVAKQTKRMLDMKVNPIEGL,1.71
11,FDKEWVAKQTKRMLDMKVNPIMGL,2.69
12,FDKEWVAKQTKRMLDMKVNPIVGL,2.58
13,FDKEWVAKQTKRMLDMKVNPITGL,1.91
14,FDKEWVAKQTKRMLDMKVNPIFGL,1.73
15,FDKEWVAKQTKRMLDMKVNPIYGL,2.13
16,FDKEWVAKQTKRMLDMKVNPIRGL,1.89
17,FDKEWVAKQTKRMLDMKVNPICGL,1.29
18,FDKEWVAKQTKRMLDMKVNPIGGL,1.63
19,FDKEWVAKQTKRMLDMKVNPISGL,2.23
20,FDKEWVAKQTKRMLDMAVNPIQGL,1.96
21,FDKEWVAKQTKRMLDMDVNPIQGL,2.49
22,FDKEWVAKQTKRMLDMLVNPIQGL,2.57
23,FDKEWVAKQTKRMLDMMVNPIQGL,1.58
24,FDKEWVAKQTKRMLDMVVNPIQGL,2.03

row,Variant,protein stability index
1,FDKEWVAKQTKRMLDMGVNPIQGL,1.51
2,FDKEWVAKQTKRMLDMPVNPIQGL,2.24
3,FDKEWVAKQTKRMLDMIVNPIQGL,2.3
4,FDKEWVAKQTKRMLDMCVNPIQGL,2.08
5,FDKEWVAKQTKRMLDMYVNPIQGL,2.14
6,FDKEWVAKQTKRMLDMFVNPIQGL,2.16
7,FDKEWVAKQTKRMLDMNVNPIQGL,1.88
8,FDKEWVAKQTKRMLDMEVNPIQGL,1.71
9,FDKEWVAKQTKRMLDMQVNPIQGL,1.41
10,FDKEWVAKQTKRMLDMTVNPIQGL,1.83
11,FDKEWVAKQTKRMLDMSVNPIQGL,1.55
12,FDKEWVAKQTKRMLDMHVNPIQGL,1.44
13,FDKEWVAKQTKRMLDMWVNPIQGL,2.4
14,FDKEWVAKQTKRMLDMRVNPIQGL,1.95
15,FDKEWVAKQTKRMTDMKVNPIQGL,1.79
16,FDKEWVAKQTKRMFDMKVNPIQGL,2.88
17,FDKEWVAKQTKRMRDMKVNPIQGL,1.82
18,FDKEWVAKQTKRMIDMKVNPIQGL,2.1
19,FDKEWVAKQTKRMADMKVNPIQGL,2.35
20,FDKEWVAKQTKRMSDMKVNPIQGL,1.54
21,FDKEWVAKQTKRMNDMKVNPIQGL,1.56
22,FDKEWVAKQTKRMEDMKVNPIQGL,1.43
23,FDKEWVAKQTKRMKDMKVNPIQGL,2.12
24,FDKEWVAKQTKRMQDMKVNPIQGL,1.23

row,Variant,protein stability index
1,FDKEWVAKQTKRMGDMKVNPIQGL,1.72
2,FDKEWVAKQTKRMHDMKVNPIQGL,1.65
3,FDKEWVAKQTKRMPDMKVNPIQGL,1.65
4,FDKEWVAKQTKRMMDMKVNPIQGL,1.47
5,FDKEWVAKQTKRMYDMKVNPIQGL,2.42
6,FDKEWVAKQTKRMDDMKVNPIQGL,2.06
7,FDKEWVAKQTKRMCDMKVNPIQGL,1.38
8,FDKEWVAKQTKRMVDMKVNPIQGL,1.41
9,FDKEWVAKQTKRMLDSKVNPIQGL,1.88
10,FDKEWVAKQTKRMLDYKVNPIQGL,1.75
11,FDKEWVAKQTKRMLDKKVNPIQGL,1.5
12,FDKEWVAKQTKRMLDRKVNPIQGL,1.72
13,FDKEWVAKQTKRMLDGKVNPIQGL,2.13
14,FDKEWVAKQTKRMLDWKVNPIQGL,2.02
15,FDKEWVAKQTKRMLDAKVNPIQGL,1.48
16,FDKEWVAKQTKRMLDIKVNPIQGL,2.1
17,FDKEWVAKQTKRMLDFKVNPIQGL,1.62
18,FDKEWVAKQTKRMLDTKVNPIQGL,1.79
19,FDKEWVAKQTKRMLDDKVNPIQGL,1.97
20,FDKEWVAKQTKRMLDLKVNPIQGL,2
21,FDKEWVAKQTKRMLDNKVNPIQGL,1.67
22,FDKEWVAKQTKRMLDVKVNPIQGL,1.71
23,FDKEWVAKQTKRMLDHKVNPIQGL,1.42
24,FDKEWVAKQTKRMLDCKVNPIQGL,1.65

row,Variant,protein stability index
1,FDKEWVAKQTKRMLDPKVNPIQGL,2.19
2,FDKEWVAKQTKRMLDEKVNPIQGL,1.52
3,FDKEWVAKQTKRMLDQKVNPIQGL,2.4
4,FDKEWVAKQTKRMLDMKVNPFQGL,1.46
5,FDKEWVAKQTKRMLDMKVNPTQGL,1.83
6,FDKEWVAKQTKRMLDMKVNPVQGL,1.89
7,FDKEWVAKQTKRMLDMKVNPAQGL,1.54
8,FDKEWVAKQTKRMLDMKVNPNQGL,2.21
9,FDKEWVAKQTKRMLDMKVNPMQGL,2.63
10,FDKEWVAKQTKRMLDMKVNPKQGL,2.06
11,FDKEWVAKQTKRMLDMKVNPWQGL,2.17
12,FDKEWVAKQTKRMLDMKVNPPQGL,1.63
13,FDKEWVAKQTKRMLDMKVNPCQGL,2.6
14,FDKEWVAKQTKRMLDMKVNPHQGL,2.19
15,FDKEWVAKQTKRMLDMKVNPSQGL,1.32
16,FDKEWVAKQTKRMLDMKVNPYQGL,1.75
17,FDKEWVAKQTKRMLDMKVNPRQGL,1.61
18,FDKEWVAKQTKRMLDMKVNPGQGL,1.75
19,FDKEWVAKQTKRMLDMKVNPQQGL,1.78
20,FDKEWVAKQTKRMLDMKVNPEQGL,1.66
21,FDKEWVAKQTKRMLDMKVNPDQGL,1.93
22,FDKEWVAKQTKRMLDMKVNPLQGL,1.64
23,FDKEWVAKQTKRWLDMKVNPIQGL,1.56
24,FDKEWVAKQTKRSLDMKVNPIQGL,2.4

row,Variant,protein stability index
1,FDKEWVAKQTKRTLDMKVNPIQGL,1.82
2,FDKEWVAKQTKRRLDMKVNPIQGL,1.64
3,FDKEWVAKQTKRYLDMKVNPIQGL,1.63
4,FDKEWVAKQTKRMLDMKVNPIQEL,1.72
5,FDKEWVAKQTKRMLDMKVNPIQHL,1.4
6,FDKEWVAKQTKRMLDMKVNPIQQL,2.02
7,FDKEWVAKQTKRMLDMKVNPIQPL,1.39
8,FDKEWVAKQTKRMLDMKVNPIQML,1.76
9,FDKEWVAKQTKRMLDMKVNPIQLL,1.35
10,FDKEWVAKQTKRMLDMKVNPIQAL,1.43
11,FDKEWVAKQTKRMLDMKVNPIQFL,2.36
12,FDKEWVAKQTKRMLDMKVNPIQIL,1.81
13,FDKEWVAKQTKRMLDMKVNPIQKL,2.02
14,FDKEWVAKQTKRMLDMKVNPIQDL,1.9
15,FDKEWVAKQTKRMLDMKVNPIQNL,1.8
16,FDKEWVAKQTKRMLDMKVNPIQCL,3.51
17,FDKEWVAKQTKRMLDMKVNPIQRL,1.48
18,FDKEWVAKQTKRMLDMKVNRIQGL,1.68
19,FDKEWVAKQTKRMLDMKVNKIQGL,1.55
20,FDKEWVAKQTKRMLDMKVNEIQGL,1.59
21,FDKEWVAKQTKRMLDMKVNNIQGL,1.47
22,FDKEWVAKQTKRMLDMKVNQIQGL,1.54
23,FDKEWVAKQTKRMLDMKVNLIQGL,1.63
24,FDKEWVAKQTKRMLDMKVNIIQGL,1.56

row,Variant,protein stability index
1,FDKEWVAKQTKRMLDMKVNWIQGL,2.4
2,FDKEWVAKQTKRMLDMKVNMIQGL,2.08
3,FDKEWVAKQTKRMLDMKVNDIQGL,1.63
4,FDKEWVAKQTKRMLDMKVNTIQGL,2.38
5,FDKEWVAKQTKRMLDMKVNVIQGL,1.73
6,FDKEWVAKQTKRMLDMKVNCIQGL,1.73
7,FDKEWVAKQTKRMLDMKVNAIQGL,1.61
8,FDKEWVAKQTKRMLDMKVNHIQGL,1.78
9,FDKEWVAKQTKRMLDMKVNSIQGL,1.55
10,FDKEWVAKQTKRMLDMKVNFIQGL,1.71
11,FDKEWVAKQTKRMLDMKVNGIQGL,2.17
12,FDKEWVAKQTKRMLDMKVNYIQGL,2.05
13,FDKEWVAKQTKRMLDMKVDPIQGL,1.79
14,FDKEWVAKQTKRMLDMKVGPIQGL,1.94
15,FDKEWVAKQTKRMLDMKVVPIQGL,2.22
16,FDKEWVAKQTKRMLDMKVFPIQGL,1.77
17,FDKEWVAKQTKRMLDMKVIPIQGL,1.76
18,FDKEWVAKQTKRMLDMKVMPIQGL,1.97
19,FDKEWVAKQTKRMLDMKVCPIQGL,2.23
20,FDKEWVAKQTKRMLDMKVRPIQGL,1.71
21,FDKEWVAKQTKRMLDMKVWPIQGL,1.38
22,FDKEWVAKQTKRMLDMKVSPIQGL,1.97
23,FDKEWVAKQTKRMLDMKVPPIQGL,2.32
24,FDKEWVAKQTKRMLDMKVKPIQGL,1.92

row,Variant,protein stability index
1,FDKEWVAKQTKRMLDMKVHPIQGL,1.7
2,FDKEWVAKQTKRMLDMKVTPIQGL,1.16
3,FDKEWVAKQTKRMLDMKVQPIQGL,1.64
4,FDKEWVAKQTKRMLDMKVAPIQGL,1.75
5,FDKEWVAKQTKRMLDMKVLPIQGL,1.26
6,FDKEWVAKQTKRMLDMKVEPIQGL,1.9
7,FDKEWVAKQTKRMLDMKVYPIQGL,2.55
8,FDKEWVAKQTKRMLQMKVNPIQGL,1.6
9,FDKEWVAKQTKRMLPMKVNPIQGL,1.84
10,FDKEWVAKQTKRMLFMKVNPIQGL,1.84
11,FDKEWVAKQTKRMLHMKVNPIQGL,1.88
12,FDKEWVAKQTKRMLYMKVNPIQGL,2.36
13,FDKEWVAKQTKRMLNMKVNPIQGL,1.58
14,FDKEWVAKQTKRMLTMKVNPIQGL,1.84
15,FDKEWVAKQTKRMLGMKVNPIQGL,1.75
16,FDKEWVAKQTKRMLEMKVNPIQGL,1.68
17,FDKEWVAKQTKRMLSMKVNPIQGL,1.58
18,FDKEWVAKQTKRMLKMKVNPIQGL,1.89
19,FDKEWVAKQTKRMLVMKVNPIQGL,1.33
20,FDKEWVAKQTKRMLLMKVNPIQGL,1.64
21,FDKEWVAKQTKRMLWMKVNPIQGL,2.07
22,FDKEWVAKQTKRMLAMKVNPIQGL,1.62
23,FDKEWVAKQTKRMLCMKVNPIQGL,1.66
24,FDKEWVAKQTKRMLMMKVNPIQGL,3.02

row,Variant,protein stability index
1,FDKEWVAKQTKRMLIMKVNPIQGL,1.76
2,FDKEWVAKQTKRMLDMKINPIQGL,1.65
3,FDKEWVAKQTKRMLDMKLNPIQGL,1.72
4,FDKEWVAKQTKRMLDMKHNPIQGL,1.94
5,FDKEWVAKQTKRMLDMKKNPIQGL,1.19
6,FDKEWVAKQTKRMLDMKANPIQGL,1.79
7,FDKEWVAKQTKRMLDMKENPIQGL,1.95
8,FDKEWVAKQTKRMLDMKMNPIQGL,1.86
9,FDKEWVAKQTKRMLDMKGNPIQGL,2
10,FDKEWVAKQTKRMLDMKCNPIQGL,1.88
11,FDKEWVAKQTKRMLDMKPNPIQGL,2.13
12,FDKEWVAKQTKRMLDMKNNPIQGL,1.86
13,FDKEWVAKQTKRMLDMKTNPIQGL,2.24
14,FDKEWVAKQTKRMLDMKWNPIQGL,1.99
15,FDKEWVAKQTKRMLDMKQNPIQGL,2.22
16,FDKEWVAKQTKRMLDMKYNPIQGL,2.87
17,FDKEWVAKQTKRMLDMKRNPIQGL,2.19
18,FDKEWVAKQTKRMLDMKSNPIQGL,1.81
19,FDKEWVAKQTKRMLDMKDNPIQGL,1.53
20,FDKEWVAKQTKRMLDMKFNPIQGL,1.42
